From US20160280799A1

Columns and labels:
[1] = substrate: F protein of RSV (Long strain) (human respiratory syncytial virus, Long strain) (UniProt P12568); assay: cell-based or functional assay
[2] = molecular target: hemagglutinin (HA) of A/Vietnam/1194/04 (H5N1) on MLV(HA) pseudotyped virions (influenza A virus A/Vietnam/1194/04 (H5N1))

Chain of F protein of RSV (Long strain) (human respiratory syncytial virus, Long strain) (P12568 26-574): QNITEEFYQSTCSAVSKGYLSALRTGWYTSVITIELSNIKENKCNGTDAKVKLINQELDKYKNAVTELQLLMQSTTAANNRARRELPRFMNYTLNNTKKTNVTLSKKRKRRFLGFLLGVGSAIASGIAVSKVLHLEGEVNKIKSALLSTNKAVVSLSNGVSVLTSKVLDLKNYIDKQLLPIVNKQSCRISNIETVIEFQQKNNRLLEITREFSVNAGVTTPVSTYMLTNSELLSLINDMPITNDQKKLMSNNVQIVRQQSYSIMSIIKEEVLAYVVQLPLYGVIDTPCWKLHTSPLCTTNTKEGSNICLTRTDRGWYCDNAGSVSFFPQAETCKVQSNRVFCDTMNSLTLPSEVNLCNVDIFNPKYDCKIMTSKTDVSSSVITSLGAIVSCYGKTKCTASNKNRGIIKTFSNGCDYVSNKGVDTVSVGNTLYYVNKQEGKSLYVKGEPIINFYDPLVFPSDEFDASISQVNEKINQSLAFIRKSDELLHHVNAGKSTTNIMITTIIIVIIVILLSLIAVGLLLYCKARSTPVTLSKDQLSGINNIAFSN

| Binder | IC50, neutralization of RSV infection, Long strain [1] | IC50 (read off the curve) [2] |
| --- | --- | --- |
| building block of RSV407 (monovalent) (VHH) VHH: EVQLVESGGGLVQAGGSLSISCAASGGSLSNYVLGWFRQAPGKEREFVAAINWRGDITIGPPNVEGRFTISRDNAKNTGYLQMNSLAPDDTAVYYCGAGTPLNPGAYIYDWSYDYWGRGTQVTVSS | 50 to 100 nM |  |
| 203-B12 (VHH) VHH: EVQLVESGGGLVQPGGSLRLSCAASGFTFSSYAMGWVRRAPGEGLEWVSSISSGGALPTYADSVKGRFTISRDNVKNTLYLQMNSLKPEDTAVYSCEKYAGSMWTSERDAWGQGTQVTVSS |  | 10 nM |
| 203-H9 (VHH) VHH: EVQLVESGGGLVQPGGSLRLSCTGSGFTFSSYWMDWVRQTPGKDLEYVSGISPSGGNTDYADSVKGRFTISRDNAKNTLYLQMNSLQPEDTALYYCRRSLTLTDSPDLRSQGTQVTVSS |  | 8 nM |
| 202-C8 (VHH) VHH: EVQLVESGGGLVQPGGSLRLSCTGSGFTFSSYWMDWVRQTPGKDLEYVSGISPSGSNTDYADSVKGRFTISRDNAKNTLYLQMNSLKPEDTALYYCRRSLTLTDSPDLRSQGTQVTVSS |  | 10 nM |
